Experimental findings from US20230147657A1 (INSERM INSTITUT NATIONAL DE LA SANT ET DE LA RECHERCHE M …, published 2023) are described below.

For orientation: Kd means the constant that tells how readily two partners part at equilibrium. One may read the koff as the first-order rate constant of dissociation. Read a low koff as a long-lived complex. Broadly, the kon is a measure of how fast the partners come together.

Test [1] addresses T1, human CD45RC (human, UniProt P08575 26-1306).
T1 construct: Native protein on human blood leukocytes / PBMC / T cells of healthy volunteers; also called hCD45RC
T1 sequence: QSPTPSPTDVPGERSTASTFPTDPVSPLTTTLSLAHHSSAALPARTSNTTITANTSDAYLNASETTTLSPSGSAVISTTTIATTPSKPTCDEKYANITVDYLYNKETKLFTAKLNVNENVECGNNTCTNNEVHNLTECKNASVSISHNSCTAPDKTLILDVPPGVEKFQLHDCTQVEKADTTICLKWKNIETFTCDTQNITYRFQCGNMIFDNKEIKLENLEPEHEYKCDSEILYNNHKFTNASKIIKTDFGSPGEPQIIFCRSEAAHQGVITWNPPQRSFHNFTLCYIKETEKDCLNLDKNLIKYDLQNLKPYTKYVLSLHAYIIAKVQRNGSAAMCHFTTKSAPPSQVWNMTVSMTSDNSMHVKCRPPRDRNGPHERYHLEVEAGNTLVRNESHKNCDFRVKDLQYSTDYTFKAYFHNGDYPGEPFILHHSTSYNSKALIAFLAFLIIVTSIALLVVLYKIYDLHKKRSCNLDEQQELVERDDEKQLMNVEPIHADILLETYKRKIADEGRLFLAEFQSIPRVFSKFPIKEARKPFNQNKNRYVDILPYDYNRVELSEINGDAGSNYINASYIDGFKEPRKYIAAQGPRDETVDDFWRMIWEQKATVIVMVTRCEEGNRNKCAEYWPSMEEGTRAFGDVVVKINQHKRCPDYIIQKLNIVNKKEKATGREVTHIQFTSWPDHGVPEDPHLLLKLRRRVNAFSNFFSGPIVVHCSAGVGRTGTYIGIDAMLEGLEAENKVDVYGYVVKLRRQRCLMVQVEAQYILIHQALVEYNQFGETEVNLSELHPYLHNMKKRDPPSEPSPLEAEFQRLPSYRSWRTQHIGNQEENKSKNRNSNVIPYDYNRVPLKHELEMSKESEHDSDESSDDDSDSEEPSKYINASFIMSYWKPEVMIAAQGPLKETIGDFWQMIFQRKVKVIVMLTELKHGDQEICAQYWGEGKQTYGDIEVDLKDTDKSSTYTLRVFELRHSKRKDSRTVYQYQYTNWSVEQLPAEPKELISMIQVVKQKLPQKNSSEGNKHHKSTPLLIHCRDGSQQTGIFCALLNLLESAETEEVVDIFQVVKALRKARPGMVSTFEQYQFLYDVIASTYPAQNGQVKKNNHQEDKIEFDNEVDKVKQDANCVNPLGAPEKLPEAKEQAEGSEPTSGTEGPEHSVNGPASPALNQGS
Description: cell-based or functional assay.

Test [2] has as its target T1, human CD45RC. Description: flow cytometry, EDTA whole blood, one of three healthy volunteers [1].
Test [3] has as its target T1, human CD45RC. Put plainly: flow cytometry, EDTA whole blood, one of three healthy volunteers [2]. (Flow cytometry measures light scatter and fluorescence of single cells or particles in a stream.)
The target in test [4] is T1, human CD45RC. Put plainly: flow cytometry, EDTA whole blood, one of three healthy volunteers [3].
Test [5] deals with T1, human CD45RC. Description: flow cytometry, EDTA whole blood, one of three healthy volunteers; very few events [2].
Test [6] concerns the target T1, human CD45RC. Put plainly: flow cytometry on T cells of human PBMC; biotin anti-human IgG + streptavidin PerCP-Cy5.5.
Test [7] has as its target T2, human CD45RC in solubilized cell membranes (CD45RC^high PBMCs or CHO cells expressing CD45RC) (human, UniProt P08575 26-1306).
T2 sequence: T1 sequence
Put plainly: SPR (BIAcore 3000 / T200), ABIS-45RC immobilized on CM5 chip, solubilized cell membranes as analyte, 25 °C, single cycle kinetics and calibration free concentration analysis. The text has this:
Briefly, 1×10⁷ CD45RC^high PBMCs or CHO cells expressing CD45RC after plasmid transfection were solubilized using the Mem-PER membrane isolation kit (Thermo-fisher).

With “Ctrl-CAR (control CAR having a different antigenic specificity) (receptor)”, in the test with human CD45RC [1], the apoptosis of human T cells after 18 h with transduced Jurkat cells (annexin V / DAPI) is 7 to 8%.
In the test with human CD45RC [2], “MT2 (murine anti-hCD45RC antibody, commercially available)” returned a % of B cells in the CD45RC high gate (top) of 79.9%, a % of B cells in the CD45RC intermediate/low gate (middle) of 20.1%, a % of B cells in the CD45RC negative gate (bottom) of 0% and a % of CD3+ TCRab cells in the CD45RC high gate (top) of 8.34%. In the test with human CD45RC [2], this molecule registered a % of CD3+ TCRab cells in the CD45RC intermediate/low gate (middle) of 46.2%, a % of CD3+ TCRab cells in the CD45RC negative gate (bottom) of 45.5%, a % of CD3+ TCRgd cells in the CD45RC high gate (top) of 1.93% and a % of CD3+ TCRgd cells in the CD45RC intermediate/low gate (middle) of 90.6%. Moreover, in the test with human CD45RC [2], the % of CD3+ TCRgd cells in the CD45RC negative gate (bottom) was found to be 7.46%, the % of CD4+ T cells in the CD45RC high gate (top) was 3.64%, the % of CD4+ T cells in the CD45RC intermediate/low gate (middle) came out at 47.2% and the % of CD4+ T cells in the CD45RC negative gate (bottom) is 49.2%. Besides, in the test with human CD45RC [2], the % of CD4+ Treg (CD25+CD127-) in the CD45RC high gate (top) is 3.52%, the % of CD4+ Treg (CD25+CD127-) in the CD45RC intermediate/low gate (middle) came out at 19.8%, the % of CD4+ Treg (CD25+CD127-) in the CD45RC negative gate (bottom) was determined as 76.7% and the % of CD8+ T cells in the CD45RC high gate (top) came to 38.8%. Further, in the test with human CD45RC [2], the % of CD8+ T cells in the CD45RC intermediate/low gate (middle) was determined as 39.7%, the % of CD8+ T cells in the CD45RC negative gate (bottom) stood at 21.5%, the % of NK cells in the CD45RC high gate (top) was 28.6% and the % of NK cells in the CD45RC intermediate/low gate (middle) was determined as 70.4%. Besides, in the test with human CD45RC [2], the % of NK cells in the CD45RC negative gate (bottom) amounted to 1%, the % of T cells in the CD45RC high gate (top) was found to be 7.43%, the % of T cells in the CD45RC intermediate/low gate (middle) came to 49.7% and the % of T cells in the CD45RC negative gate (bottom) stood at 42.9%. Also, in the test with human CD45RC [3], the % of ILC1 in the CD45RC high gate (top) amounted to 9.3%, the % of ILC1 in the CD45RC intermediate/low gate (middle) stood at 27.5%, the % of ILC1 in the CD45RC negative gate (bottom) was determined as 63.2% and the % of ILC2 in the CD45RC high gate (top) amounted to 45%. In the test with human CD45RC [3], this molecule yielded a % of ILC2 in the CD45RC intermediate/low gate (middle) of 49.5%, a % of ILC2 in the CD45RC negative gate (bottom) of 5.5%, a % of MAIT cells in the CD45RC high gate (top) of 5.89% and a % of MAIT cells in the CD45RC intermediate/low gate (middle) of 71%. For the same molecule, in the test with human CD45RC [3], the % of MAIT cells in the CD45RC negative gate (bottom) amounted to 23.2%, the % of NKT cells in the CD45RC high gate (top) turned out to be 34.4%, the % of NKT cells in the CD45RC intermediate/low gate (middle) was determined as 54.2% and the % of NKT cells in the CD45RC negative gate (bottom) is 11.4%. In the test with human CD45RC [3], this molecule gave a % of iNKT cells in the CD45RC high gate (top) of 24.1%, a % of iNKT cells in the CD45RC intermediate/low gate (middle) of 61.6%, a % of iNKT cells in the CD45RC negative gate (bottom) of 14.3% and a % of monocytes CD14+ in the CD45RC high gate (top) of 0.43%. In the test with human CD45RC [3], this molecule registered a % of monocytes CD14+ in the CD45RC intermediate/low gate (middle) of 43.9%, a % of monocytes CD14+ in the CD45RC negative gate (bottom) of 55.6%, a % of monocytes CD14highCD16- in the CD45RC high gate (top) of 0.091% and a % of monocytes CD14highCD16- in the CD45RC intermediate/low gate (middle) of 38.3%. The molecule also had a % of monocytes CD14highCD16- in the CD45RC negative gate (bottom) in the test with human CD45RC [3] of 61.6%. For the same molecule, in the test with human CD45RC [4], the % of basophils in the CD45RC high gate (top) turned out to be 0%, the % of basophils in the CD45RC intermediate/low gate (middle) worked out at 7.3%, the % of basophils in the CD45RC negative gate (bottom) was found to be 92.7% and the % of eosinophils in the CD45RC high gate (top) worked out at 0.47%. Also, in the test with human CD45RC [4], the % of eosinophils in the CD45RC intermediate/low gate (middle) is 90.5%, the % of eosinophils in the CD45RC negative gate (bottom) was 9.08%, the % of mDC in the CD45RC high gate (top) was 0% and the % of mDC in the CD45RC intermediate/low gate (middle) came to 14.3%. In the test with human CD45RC [4], the % of mDC in the CD45RC negative gate (bottom) amounted to 85.7%, the % of monocytes CD14intCD16+ in the CD45RC high gate (top) was 6.45%, the % of monocytes CD14intCD16+ in the CD45RC intermediate/low gate (middle) came to 87.7% and the % of monocytes CD14intCD16+ in the CD45RC negative gate (bottom) is 5.87%. In the test with human CD45RC [4], the % of neutrophils in the CD45RC high gate (top) was found to be 0.014%, the % of neutrophils in the CD45RC intermediate/low gate (middle) is 19.3%, the % of neutrophils in the CD45RC negative gate (bottom) is 80.7% and the % of pDC in the CD45RC high gate (top) worked out at 1.84%. For the same molecule, in the test with human CD45RC [4], the % of pDC in the CD45RC intermediate/low gate (middle) was 97.9% and the % of pDC in the CD45RC negative gate (bottom) came to 0.23%. In the test with human CD45RC [5], the % of ILC3 in the CD45RC high gate (top) amounted to 50%, the % of ILC3 in the CD45RC intermediate/low gate (middle) stood at 50% and the % of ILC3 in the CD45RC negative gate (bottom) worked out at 0%.

B1: ABIS-45RC (antibody, mouse IgG1, kappa, V domains shown)
VH: QVQLQQSGAELVRPGTSVKMSCKAAGYTFTNYYIGWVKQRPGHGLEWIGDIFPGGDYANSNEKFKGKATLTADTSSSTAYMQLSSLTSEDSAIYYCVRRNFDYWGQGTTLTVSS
VL: QIVLTQSPTIMSASPGEKVTITCSASSSVSYMHWFQQKTGTSPRLWIYNTSNLPSGVPARFSGSGSGTSYSLTISRMEAEDAATYYCQQRSSYPLTFGAGTKLELKR
notes: also called murine ABIS-45RC; ABIS-CD45RC
Regarding B1, in the test with human CD45RC [6], the “% of T cells in the CD45RC gate at 1 µg/mL” value stood at 61.3% and the “% of T cells in the CD45RC gate at 2 µg/mL” value was 61.1%. Also, in test [7], the dissociation constant (Kd) amounted to 50 nM, the koff turned out to be 0.0144 s⁻¹ and the kon was 291000 M⁻¹ s⁻¹.
